Key:
squid p32 (AUF1 homolog) = biological target: T1, squid p32 (AUF1 homolog) (Aedes albopictus (cDNA from C6/36 cells), UniProt A0A023EP16 2-301); assay: fluorescence intensity titration; conditions: protein: recombinant; tags: none after cleavage (SUMO fusion removed by SUMO protease)
T1 sequence: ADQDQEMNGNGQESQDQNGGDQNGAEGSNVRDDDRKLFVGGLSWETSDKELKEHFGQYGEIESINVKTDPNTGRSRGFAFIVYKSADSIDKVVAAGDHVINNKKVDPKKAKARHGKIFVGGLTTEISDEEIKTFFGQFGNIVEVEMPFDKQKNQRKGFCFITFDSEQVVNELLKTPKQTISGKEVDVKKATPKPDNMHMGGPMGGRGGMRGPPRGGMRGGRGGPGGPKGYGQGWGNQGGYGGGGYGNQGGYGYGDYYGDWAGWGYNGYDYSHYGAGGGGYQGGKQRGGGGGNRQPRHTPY

squid p30 (AUF1 homolog) = biological target: T2, squid p30 (AUF1 homolog) (Aedes albopictus (cDNA from C6/36 cells), UniProt A0ABM1XVA0 2-281); assay: fluorescence intensity titration; conditions: protein: recombinant; tags: none after cleavage (SUMO fusion removed by SUMO protease)
T2 sequence: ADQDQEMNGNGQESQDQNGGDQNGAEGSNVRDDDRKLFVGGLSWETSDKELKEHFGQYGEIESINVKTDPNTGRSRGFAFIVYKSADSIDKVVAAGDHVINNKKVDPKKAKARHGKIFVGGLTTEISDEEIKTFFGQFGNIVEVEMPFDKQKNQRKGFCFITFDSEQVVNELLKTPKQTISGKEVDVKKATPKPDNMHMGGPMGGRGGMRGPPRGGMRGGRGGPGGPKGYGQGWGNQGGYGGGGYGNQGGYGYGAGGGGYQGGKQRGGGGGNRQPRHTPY

Row | Binder | Kd (squid p32 (AUF1 homolog)) | Kd (squid p30 (AUF1 homolog))
1 | CUAAGAUGCUCGCUGC (ssRNA) [random RNA] | 630 nM | 250 nM
2 | UAUUUAGUGGUGUUAG (ssRNA) [AU/GU-rich RNA] | 130 nM | 13 nM

From PMC7019923
